Assay results: patent US20250075002A1 (BEIGENE SWITZERLAND, published 2025)

Tests used:
[1] = biological target: T1, Human MUC1 (full length), on cells (human, UniProt P15941 24-1255); test: cell-based or functional assay
[2] = biological target: T1, Human MUC1 (full length), on cells; test: flow cytometry on live ZR-75 cells (native MUC1)

T1 sequence (P15941 24-1255 limits assumed): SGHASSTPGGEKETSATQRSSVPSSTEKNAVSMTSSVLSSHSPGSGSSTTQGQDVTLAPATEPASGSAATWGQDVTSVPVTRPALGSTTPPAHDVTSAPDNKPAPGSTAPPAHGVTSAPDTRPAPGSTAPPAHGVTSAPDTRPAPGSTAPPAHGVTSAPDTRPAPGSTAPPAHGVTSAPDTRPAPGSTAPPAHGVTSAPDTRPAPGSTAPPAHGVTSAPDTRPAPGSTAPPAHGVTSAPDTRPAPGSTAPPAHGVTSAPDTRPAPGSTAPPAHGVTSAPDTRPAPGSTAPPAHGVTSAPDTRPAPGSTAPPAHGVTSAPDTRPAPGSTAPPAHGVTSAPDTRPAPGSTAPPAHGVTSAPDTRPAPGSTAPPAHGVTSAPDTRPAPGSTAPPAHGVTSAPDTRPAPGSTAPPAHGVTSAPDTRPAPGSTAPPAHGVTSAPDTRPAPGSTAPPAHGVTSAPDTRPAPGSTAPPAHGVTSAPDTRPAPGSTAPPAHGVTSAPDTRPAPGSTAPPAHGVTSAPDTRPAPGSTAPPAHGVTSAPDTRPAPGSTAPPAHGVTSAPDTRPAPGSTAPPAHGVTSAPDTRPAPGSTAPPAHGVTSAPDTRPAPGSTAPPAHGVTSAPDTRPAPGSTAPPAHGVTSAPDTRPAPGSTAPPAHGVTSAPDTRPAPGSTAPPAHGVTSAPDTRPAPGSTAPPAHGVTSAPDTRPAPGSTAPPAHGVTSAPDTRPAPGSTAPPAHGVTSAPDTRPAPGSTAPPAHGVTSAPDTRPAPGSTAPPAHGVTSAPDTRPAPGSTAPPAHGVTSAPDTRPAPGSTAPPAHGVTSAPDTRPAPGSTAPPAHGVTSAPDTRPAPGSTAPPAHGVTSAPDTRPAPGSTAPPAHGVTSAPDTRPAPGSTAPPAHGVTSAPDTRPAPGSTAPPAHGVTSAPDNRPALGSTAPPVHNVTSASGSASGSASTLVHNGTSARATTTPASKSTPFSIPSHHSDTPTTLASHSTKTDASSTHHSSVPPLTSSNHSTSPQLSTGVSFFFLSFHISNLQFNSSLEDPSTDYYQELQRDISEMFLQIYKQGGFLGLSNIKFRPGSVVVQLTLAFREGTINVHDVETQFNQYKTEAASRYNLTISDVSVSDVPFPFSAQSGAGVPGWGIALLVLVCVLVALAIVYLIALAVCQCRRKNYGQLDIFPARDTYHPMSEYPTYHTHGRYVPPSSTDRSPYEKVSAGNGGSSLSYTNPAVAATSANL

B1: MUC1 3D1-hFc-AF (antibody, IgG1, V domains shown)
VH: EVQLVQSGAEVKKPGESLKISCKGSGYAFSNFWMNWVRQMPGKGLEWMGQIYPGDGDTNYNGKFKGQVTISADKSISTAYLQWSSLKASDTAMYYCARSYYRSAWFAYWGQGTLVTVSL
VL: EIVLTQSPDFQSVTPKEKVTITCRASQSIGTSIHWYQQKPDQSPKLLIKYASESISGVPSRFSGSGSGTDFTLTINSLEAEDAATYYCQQSNNWPLTFGQGTKVEIK
modifications: afucosylated Fc glycan (-AF)
Which “Cell lysis activity EC50, T-47D/nanoluc in human whole blood” value [1] does the source give for B1 here?
Its value is 8.85 nM.

What about the “Cell lysis activity Emax, T-47D/nanoluc in human whole blood” value (from here on “Cell lysis activity Emax, T-47D/nanoluc”) [1] of the same binder?
Its value is 10.6%.

B2: Gatipotuzumab-AF (antibody, IgG1, V domains shown)
VH: EVQLVESGGGLVQPGGSMRLSCVASGFPFSNYWMNWVRQAPGKGLEWVGEIRLKSNNYTTHYAESVKGRFTISRDDSKNSLYLQMNSLKTEDTAVYYCTRHYYFDYWGQGTLVTVSS
VL: DIVMTQSPLSNPVTPGEPASISCRSSKSLLHSNGITYFFWYLQKPGQSPQLLIYQMSNLASGVPDRFSGSGSGTDFTLRISRVEAEDVGVYYCAQNLELPPTFGQGTKVEIK
modifications: afucosylated Fc glycan (-AF)
Which results are given for B2?
Cell lysis activity EC50, T-47D/nanoluc in human whole blood [1]: 2.46 nM; Cell lysis activity Emax, T-47D/nanoluc in human whole blood [1]: 10.2%

B3: huBG219P-Bz0 (antibody, IgG1, V domains shown)
VH: EVQLLESGGGLVQPGGSLRLSCAASGFTFNDYIMSWVRQAPGKGLEWVATVSSGGDNTYYPDSVKGRFTISRDNSKNTLYLQMNSLRAEDTAVYYCTRYGGLGAMDYWGQGTLVTVSS
VL: DIQMTQSPSSLSASVGERVTITCRASGNIHNYLTWYQQKPGKSPKLLVYNAKTLADGVPSRFSGSGSGPDYTLTISSLQPEDFATYYCQHFWSVPYTFGQGTKLEIK
notes: Humanized
How did the EC50 [2] turn out when B3 was run?
Its EC50 is 20.9 nM.

B4: Clivatuzumab-AF (antibody, IgG1, V domains shown)
VH: QVQLQQSGAEVKKPGASVKVSCEASGYTFPSYVLHWVKQAPGQGLEWIGYINPYNDGTQYNEKFKGKATLTRDTSINTAYMELSRLRSDDTAVYYCARGFGGSYGFAYWGQGTLVTVSS
VL: DIQLTQSPSSLSASVGDRVTMTCSASSSVSSSYLYWYQQKPGKAPKLWIYSTSNLASGVPARFSGSGSGTDFTLTISSLQPEDSASYFCHQWNRYPYTFGGGTRLEIK
modifications: afucosylated Fc glycan (-AF)
For B4, which “Cell lysis activity Emax, T-47D/nanoluc” value [1] is on record?
The value was 2.31%.

B5: HuVH-HMFG1-AF (antibody, IgG1, V domains shown)
VH: QVQLVQSGAEVKKPGASVKVSCKASGYTFSAYWIEWVRQAPGKGLEWVGEILPGSNNSRYNEKFKGRVTVTRDTSTNTAYMELSSLRSEDTAVYYCARSYDFAWFAYWGQGTLVTVSS
VL: DIQMTQSPSSLSASVGDRVTITCKSSQSLLYSSNQKIYLAWYQQKPGKAPKLLIYWASTRESGVPSRFSGSGSGTDFTFTISSLQPEDIATYYCQQYYRYPRTFGQGTKVEIK
modifications: afucosylated Fc glycan (-AF)
With B5 as the binder, how does the “Cell lysis activity Emax, T-47D/nanoluc” value [1] read?
The value was 3.59%.
